Earlier results in patent US20240293585A1, “HIGH MOLECULAR WEIGHT ZWITTERION-CONTAINING POLYMERS” (Kodiak Sciences Inc., priority 0001, published 2024).

Substance: rhEPO: 30.4 kDa protein with 165 amino acids; native form of human erythropoietin with 3 N-linked chains
- mean terminal half life after intravenous injection (human, intravenous): 7 h
- mean terminal half life after subcutaneous injection (human, subcutaneous): 16 h

Substance: Cimzia: Fab′ against TNFa conjugated with a 40 kDa branched polymer [reference compound]
- Human half life after subcutaneous injection (human, subcutaneous): 311 h

Substance: Mircera: PEGylated form of recombinant human erythropietin [reference compound]
- in vivo half life after subcutaneous injection (chronic renal disease patients, subcutaneous): approximately 140 hours
